# Measurements reported in patent US20210388081A1 (Memorial Sloan Kettering, published 2021).
# What was measured:
# SLAMF9 protein = SLAMF9 protein (UniProt Q96A28 19-236, limits assumed); test: phage clone on SLAMF9 protein
# [1] = target: T1, FcRL2, overexpressed on 3T3 cells (UniProt Q96LA5 20-508, limits assumed); test: phage clone on 3T3-FcRL2 cells
# T1 construct: whole, on cells
# T1 sequence (looked up): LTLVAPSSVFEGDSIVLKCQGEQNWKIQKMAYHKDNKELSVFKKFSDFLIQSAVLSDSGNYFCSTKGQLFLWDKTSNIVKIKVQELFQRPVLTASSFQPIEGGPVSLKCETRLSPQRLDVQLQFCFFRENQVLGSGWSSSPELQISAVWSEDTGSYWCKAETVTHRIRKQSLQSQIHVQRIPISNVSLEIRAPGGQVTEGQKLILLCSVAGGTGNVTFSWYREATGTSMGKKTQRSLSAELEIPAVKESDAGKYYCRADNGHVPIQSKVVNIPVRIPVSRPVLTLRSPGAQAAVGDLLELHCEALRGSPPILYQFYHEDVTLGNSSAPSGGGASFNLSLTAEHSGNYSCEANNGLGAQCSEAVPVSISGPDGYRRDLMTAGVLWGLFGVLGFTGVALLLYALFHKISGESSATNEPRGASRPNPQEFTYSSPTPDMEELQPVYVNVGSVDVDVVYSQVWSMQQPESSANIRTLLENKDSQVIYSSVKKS
# [2] = target: T2, Fc Receptor-like 5 (FcRL5), full length, overexpressed on 3T3 or Raji cells (human, UniProt Q96RD9 16-977); test: phage clone screening on cells
# T2 construct: also called 3T3-FcRL5
# T2 sequence: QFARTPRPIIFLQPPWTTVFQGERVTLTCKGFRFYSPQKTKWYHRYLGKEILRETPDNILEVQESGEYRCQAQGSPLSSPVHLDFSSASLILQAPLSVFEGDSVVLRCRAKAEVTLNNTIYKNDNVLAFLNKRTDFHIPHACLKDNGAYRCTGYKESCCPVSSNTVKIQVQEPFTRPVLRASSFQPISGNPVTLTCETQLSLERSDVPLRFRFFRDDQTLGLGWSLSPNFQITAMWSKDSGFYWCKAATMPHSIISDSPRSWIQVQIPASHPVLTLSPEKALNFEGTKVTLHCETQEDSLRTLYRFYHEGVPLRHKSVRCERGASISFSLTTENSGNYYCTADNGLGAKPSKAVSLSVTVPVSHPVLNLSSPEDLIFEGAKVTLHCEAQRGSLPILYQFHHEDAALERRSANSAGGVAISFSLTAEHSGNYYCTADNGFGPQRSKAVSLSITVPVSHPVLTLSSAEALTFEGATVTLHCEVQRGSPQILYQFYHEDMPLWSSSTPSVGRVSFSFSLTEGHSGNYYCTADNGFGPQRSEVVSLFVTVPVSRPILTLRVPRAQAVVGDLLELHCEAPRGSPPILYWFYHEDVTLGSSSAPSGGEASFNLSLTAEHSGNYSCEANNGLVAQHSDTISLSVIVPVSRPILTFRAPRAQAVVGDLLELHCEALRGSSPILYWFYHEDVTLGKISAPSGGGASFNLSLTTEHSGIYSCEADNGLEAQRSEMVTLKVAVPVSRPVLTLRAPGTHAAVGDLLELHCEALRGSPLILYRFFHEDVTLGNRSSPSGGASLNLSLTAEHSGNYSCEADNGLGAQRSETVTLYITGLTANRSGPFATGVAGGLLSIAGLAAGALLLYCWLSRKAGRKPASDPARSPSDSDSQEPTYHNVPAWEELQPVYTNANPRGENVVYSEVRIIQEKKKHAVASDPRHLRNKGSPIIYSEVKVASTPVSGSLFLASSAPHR
# Procedure, shortened: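 scFv phage clones were incubated with live 3T3 cells overexpressing full-length FcRL5, then detected with mouse anti-M13 mAb and PE-anti-mouse Ig by flow cytometry. 3T3 cells expressing FcRL1, 2, 3, 4 or 6 served as negative-control targets.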
# Sequence of SLAMF9 protein (Q96A28 19-236 limits assumed): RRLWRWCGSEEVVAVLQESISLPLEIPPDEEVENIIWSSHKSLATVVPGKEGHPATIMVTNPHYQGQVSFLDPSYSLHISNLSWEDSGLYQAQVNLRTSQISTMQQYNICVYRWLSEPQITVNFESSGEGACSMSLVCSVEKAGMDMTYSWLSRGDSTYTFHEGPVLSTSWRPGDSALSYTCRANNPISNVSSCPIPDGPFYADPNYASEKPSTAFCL
Binder,binding result (SLAMF9 protein),binding result [1],binding result [2]
"ET200-125 (scFv, screened as phage clone; entry is VL-linker-VH-His tag-HA tag) scFv: NFMLTQPHAVSESPGKTVTISCTRSSGSIASNYVQWYQQRPGSSPRTVIYEDNQRPSGVPGRFSGSIDSSSNSASLTISGLKTEDEADYYCQSYDSTSVLFGGGTKLTVLGSRGGGGSGGGGSGGGGSLEMAEVQLVQSGAEVKKPGSSVKVSCKASGGTFSSNSLSWVRQAPGQGLEWMGRIFPILGITNYAQKFQGRVTITADKSTSTAYMELSSLRSEDTAVYYCARGNYQWYDAFDIWGQGTMVTVSSTSGQAGQHHHHHHGAYPYDVPDYAS",no binding,no binding,binds
"ET200-116 (scFv, screened as phage clone; entry is VL-linker-VH-His tag-HA tag) scFv: QPVLTQPPSVSVSPGQTAAIPCSGDKLGDKFASWYQQKPGQSPVLVIYQDTKRPSGIPERFSGSNSGNTATLTISGTQAMDEADYYCQTWASGIVVFGGGTKLTVLGSRGGGGSGGGGSGGGGSLEMAQVQLQQSGPGLVKPSQTLSLTCAISGDSVSSNSAAWNWIRQSPSRGLEWLGRTYYRSKWYNDYAVSVKSRITINPDTSKNQFSLQLNSVTPEDTAVYYCARERSGWKGFDYWGQGTLVTVSSTSGQAGQHHHHHHGAYPYDVPDYAS",no binding,no binding,binds
"ET200-005 (scFv, screened as phage clone; entry is VL-linker-VH-His tag-HA tag) scFv: QPVLTQPPSVSVVPGKTARITCGGKNIGSKSVHWYQQKPGQAPVVVIHYDSDRPSGIPERFSGSNSGNTATLTISRVEAGDEADYYCQVWDSSSDHPYVFGTGTKVTVLGSRGGGGSGGGGSGGGGSLEMAQVQLVQSGAEVKKPGASVKVSCKASGYTFTNYGISWVRQAPGQGLEWMGWISAYNGNTNYAHKLQGRVTMTTDTSTSTANMELRSLRPDDTAVYYCARSYFGSHDYWGQGTLVTVSSTSGQAGQHHHHHHGAYPYDVPDYAS",no binding,no binding,binds
"ET200-121 (scFv, screened as phage clone; entry is VL-linker-VH-His tag-HA tag) scFv: QSVLTQPPSVSGAPGQRVTVSCTGSRSNIGAGYDVHWYQQLPGTAPKLLIYGNSNRPPGVPDRFSGSKSGTSASLVITGLQAEDAADYYCQSYDNTVRESPYVFGTGTKVTVLGSRGGGGSGGGGSGGGGSLEMAEVQLVQSGAEVKKPGASVKVSCKVSGYTLTELSMHWVRQAPGKGLEWMGGFDPEDGETIYAQKFQGRVTMTEDTSTDTAYMELSSLRSEDTAVYYCATESNLVSRHYYYYGMDVWGQGTTVTVSSTSGQAGQHHHHHHGAYPYDVPDYAS",no binding,no binding,binds
"ET200-112 (scFv, screened as phage clone; entry is VL-linker-VH-His tag-HA tag) scFv: QAVLTQPPSASGTPGQRVTISCSGSSSNIGSNTVNWYQQLPGTAPKLLMYSNDQRPSGVPDRFSGSKSGTSASLAISGLQSEDEADYYCAAWDDSLNGYVFAAGTQLTVLSSRGGGGSGGGGSGGGGSLEMAQVQLQQWGAGLLKPSETLSLTCAVYGGSFSGYYWSWIRQPPGKGLEWIGEINHSGSTNYNPSLKSRVTISVDTSKNQFSLKLSSVTAADTAVYYCAREGLDAFDIWGQGTMVTVSSTSGQAGQHHHHHHGAYPYDVPDYAS",no binding,no binding,binds
"ET200-109 (scFv, screened as phage clone; entry is VL-linker-VH-His tag-HA tag) scFv: LPVLTQPPSASATPGQRVTISCSGTTSNIGSNTVHWYQQLPGTAPKLLIYNNNQRPSGVPDRFSGSKSGTSASLAISGLRSEDEATYSCATWDDSLSGVVFGGGTKLTVLGSRGGGGSGGGGSGGGGSLEMAEVQLVQSGAEVKKPGSSVKVSCKASGGTFSSYAISWVRQAPGQGLEWMGGIIPIFGTANYAQKFQGRVTITADESTSTAYMELSSLRSEDTAVYYCARDPAYGDYEYDAFDIWGQGTMVTVSSTSGQAGQHHHHHHGAYPYDVPDYAS",no binding,no binding,binds
"ET200-115 (scFv, screened as phage clone; entry is VL-linker-VH-His tag-HA tag) scFv: QSVLTQPPSVSGAPGQRVTISCTGSSSNIGARYDVHWYQQLPGTAPRLLISANYDRPSGVPDRFSGSKSGTSASLAITGLQAEDEADYYCQSYDSSVSAWVFGGGTKVTVLGSRGGGGSGGGGSGGGGSLEMAEVQLVQSGAEVKEPGASVRISCQASGYNFISYYMHWVRQAPGQGLEWMGTINPGSGETDYSQKLQGRVTMTRDPSTGTFDMGLSSLTSGDTAVYYCATGLIRGASDAFNIWGRGTMVTVSSTSGQAGQHHHHHHGAYPYDVPDYAS",no binding,no binding,binds
"ET200-118 (scFv, screened as phage clone; entry is VL-linker-VH-His tag-HA tag) scFv: QAVLTQPASVSGSPGQSITISCTGTSSDVGGYNYVSWYQQHPGKAPKLMIYEVSNRPSGVSNRFSGSKSGNTASLTISGLQAEDEADYYCSSYTSSSTPYVFGAGTKVTVLGSRGGGGSGGGGSGGGGSLEMAEVQLVESGGGLVQPGRSLRLSCAASGFTFDDYAMHWVRQAPGKGLEWVSGISWNSGSIGYADSVKGRFTISRDNAKNSLYLQMNSLRAEDTALYYCAKARWTAVASDHHFDYWGQGTLVTVSSTSGQAGQHHHHHHGAYPYDVPDYAS",no binding,no binding,binds
"ET200-113 (scFv, screened as phage clone; entry is VL-linker-VH-His tag-HA tag) scFv: QSVVTQPPSVSAAPGQKVTISCSGSSSNIGNNYVSWYQQLPGTAPKLLIYDNNKRPSGIPDRFSGSKSGTSATLGITGLQTGDEADYYCGTWDSSLSAAYVFGTGTKVTVLGSRGGGGSGGGGSGGGGSLEMAQVQLVQSGAEVKKPGASVKVSCKASGYSFTSYTISWVRQAPGQGLEWMGWVSTYNGLRNYAQNLQGRVTMTTDTLTTTAYMELRSLRSDDTAVYYCVREGSPDYGDFAAFDYWGQGTLVTVSSTSGQAGQHHHHHHGAYPYDVPDYAS",no binding,no binding,binds
"ET200-008 (scFv, screened as phage clone; entry is VL-linker-VH-His tag-HA tag) scFv: QSALTQPASVSGSPGQSITISCTGTSSDVGGYNYVSWYQQHPGKAPKLMIYDVSNRPSGVSNRFSGSKSGNTASLTISGLQAEDEADYYCSSYTSSSTSKVFGGGTKLTVLGSRGGGGSGGGGSGGGGSLEMAEVQLVESGGGVVRPGGSLRLSCAASGFTFGDYGMSWVRQAPGKGLEWVSGINWNGGSTGYADSVKGRFTISRDNAKNSLYLQMNSLRAEDTAVYYCARSKYNFHVYYDYWGQGTLVTVSSTSGQAGQHHHHHHGAYPYDVPDYAS",no binding,no binding,binds
"ET200-123 (scFv, screened as phage clone; entry is VL-linker-VH-His tag-HA tag) scFv: QAVLTQPPSASGTPGQRVTISCSGSSSNIGSNTVNWYQQLPGTAPKLLMYNNDQRPSGVPDRFSGSKSGTSASLAISGLQSEDEADYYCAAWDDSLNGYVFGPGTKVTVLGSRGGGGSGGGGSGGGGSLEMAQVQLVESGAEVKKPGASVKVSCKASGYTFTSYGISWVRQAPGQGLEWMGWISAYNGNTNYAQKLQGRVTMTTDTSTSTAYMELRSLRSDDTAVYYCARDLSRGANPHYYYYYGMDVWGQGTTVTVSSTSGQAGQHHHHHHGAYPYDVPDYAS",no binding,no binding,binds
"ET200-110 (scFv, screened as phage clone; entry is VL-linker-VH-His tag-HA tag) scFv: QSVLTQPPSASGTPGQRVTISCSGSSSNIGTNGVNWFQQFPGTAPKLLIYTNDQRPSGVPDRFSGSKSGTSASLAISGLQSADEADYYCAVWDHSLNGPVFGGGTKLTVLGSRGGGGSGGGGSGGGGSLEMAQVQLVQSGAEVKKPGSSVKVSCKASGGTFSSYAISWVRQAPGQGLEWMGGIIPIFGTANYAQKFQGRVTITADESTSTAYMELSSLRSEDTAVYYCARGAGFDAFDIWGQGTMVTVSSTSGQAGQHHHHHHGAYPYDVPDYAS",no binding,no binding,binds
